The text below walks through data of publication PMC9893541 (BMC Biology, 2023).

B3: FC-(ActRIIb)2 (Fc fusion, UniProt Q13705-1 19-137, looked up)
chain: SGRGEAETRECIYYNANWELERTNQSGLERCEGEQDKRLHCYASWRNSSGTIELVKKGCWLDDFNCYDRQECVATEENPQVYFCCCEGNFCNERFTHLPEAGGPEVTYEPPPTAPTLLT
notes: type 2 receptor ActRIIb (ACVR2B) in a recombinant chimeric Fc-receptor; also called (ActRIIB)2-Fc; source: bought: R&D (Cat# 339-RB-100/CF)
B5: FC-(BMPR2)2 (Fc fusion, UniProt Q13873 27-150, looked up)
chain: SQNQERLCAFKDPYQQDLGIGESRISHENGTILCSKGSTCYGLWEKSKGDINLVKQGCWSHIGDPQECHYEECVVTTTPPSIQNGTYRFCCCSTDLCNVNFTENFPPPDTTPLSPPHSFNRDET
notes: type 2 receptor BMPR2 in a recombinant chimeric Fc-receptor; source: bought: R&D (Cat# 811-BR-100)
B6: GDF5 homodimer (ligand, human, UniProt P43026 382-501, looked up)
chain: APLATRQGKRPSKNLKARCSRKALHVNFKDMGWDDWIIAPLEYEAFHCEGLCEFPLRSHLEPTNHAVIQTLMNSMDPESTPPTCCVPTRLSPISILFIDSANNVVYKQYEDMVVESCGCR
notes: Growth and Differentiation Factor 5 (GDF5), mature domain; Dimer stabilised by an inter-chain disulfide bond; also called homodimeric GDF5; Growth and Differentiation Factor 5
B7: mature GDF5 (single chain) (natural protein, human, UniProt P43026 382-501, looked up)
chain: APLATRQGKRPSKNLKARCSRKALHVNFKDMGWDDWIIAPLEYEAFHCEGLCEFPLRSHLEPTNHAVIQTLMNSMDPESTPPTCCVPTRLSPISILFIDSANNVVYKQYEDMVVESCGCR
notes: Growth and Differentiation Factor 5 (GDF5), mature domain; The single chain before dimerisation; used for the rows on dimer formation; also called GDF5 monomer; GDF5 chain; source: E. coli Rosetta (DE3), inclusion bodies, solubilised in urea, clarified (minimum 90 % purity)
B8: FC-(Alk3)2 (Fc fusion, UniProt P36894 24-152, looked up)
chain: QNLDSMLHGTGMKSDSDQKKSENGVTLAPEDTLPFLKCYCSGHCPDDAINNTCITNGHCFAIIEEDDQGETTLASGCMKYEGSDFQCKDSPKAQLRRTIECCRTNLCNQYLQPTLPPVVIGPFFDGSIR
notes: type 1 receptor Alk3 (BMPR1A) in a recombinant chimeric Fc-receptor; also called chimeric FC-receptor; source: bought: R&D (Cat# 315-BR-100/CF)

The target in the data set “FC-(BMPR2)2” is B5. Kind of data set: SPR; chimeric Fc-type 2 receptor coupled to a Series S Protein A chip; ligands 100-0.198 nM in SPR buffer, 300 s association, 1000 s dissociation; steady-state analysis; apparent affinities; average of N=2. The conditions noted are these: both partners purified.
The data set “FC-(ActRIIb)2” addresses B3. The description is as above. The note with it: both partners purified.
The target in the data set “FC-(Alk3)2” is B8. Put plainly: SPR; BIAcore T-200; chimeric Fc-type 1 receptor coupled to a Series S Protein A chip; ligands 6.25-0.049 nM flowed at 50 uL/min, 300 s association, 1000 s dissociation; 20 mM HEPES pH 7.4, 350 mM NaCl, 0.005 % P-20, 0.5 mg/mL BSA, 3.4 mM EDTA; kinetic 1:1 fit (also a bivalent fit); apparent KD = kd/ka; average of N=2. The conditions noted are these: both partners purified.

Data set [1] concerns the molecule itself. Put plainly: oxidative refolding of mixed chains, heparin affinity chromatography, SDS-PAGE and Western blot (reducing and non-reducing), MALDI-TOF mass spectrometry; solubilised inclusion bodies mixed in a 1:1 molar ratio, refolded 5 days in 0.1 M Tris pH 8.5, 0.5 M L-arginine, 0.3 % CHAPS, 150 mM NaCl, 1 mM reduced and 1 mM oxidized glutathione, 1 mM EDTA; heparin column eluted with 150-650 mM NaCl; disulfide-linked dimers.

The target of data set [2] is B7. The data set is described as above. The conditions noted are these: both partners purified.
A further data set deals with T1, BMP2/GDF5 heterodimer (human, UniProt P12643 283-396; P43026 382-501).
T1 construct: bone morphogenetic protein 2 (BMP2), mature domain; Growth and Differentiation Factor 5 (GDF5), mature domain; Made by people from two natural mature chains; disulfide-linked dimer; also called GDF5/BMP2; WT heterodimer; copies: 1 + 1
Put plainly: SPR; chimeric Fc-type 2 receptor coupled to a Series S Protein A chip; ligands 100-0.198 nM in SPR buffer, 300 s association, 1000 s dissociation; steady-state analysis; apparent affinities; average of N=2. The conditions noted are these: both partners purified.

Data set [3] deals with T2, BMP4/GDF5 heterodimer (human, UniProt P12644 293-408; P43026 382-501).
T2 construct: additional Met residue on the N-terminus of the BMP4 construct; bone morphogenetic protein 4 (BMP4), mature domain; Growth and Differentiation Factor 5 (GDF5), mature domain; Made by people from two natural mature chains; disulfide-linked dimer; also called GDF5/BMP4; copies: 1 + 1
T2 sequence 1: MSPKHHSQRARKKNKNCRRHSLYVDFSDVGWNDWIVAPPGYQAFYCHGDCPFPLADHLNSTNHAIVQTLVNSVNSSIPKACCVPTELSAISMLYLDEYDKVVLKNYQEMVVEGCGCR
T2 sequence 2: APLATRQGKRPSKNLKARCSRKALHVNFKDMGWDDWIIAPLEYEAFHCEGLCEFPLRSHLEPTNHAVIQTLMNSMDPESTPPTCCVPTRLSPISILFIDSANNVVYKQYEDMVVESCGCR
The data set is described as above. The note with it: both partners purified.

The target in the data set “GDF5 homodimer” is B6. Described as above. The note with it: both partners purified.
The target of a further data set is T3, FC-(Alk6)2 (UniProt O00238 14-126).
T3 construct: type 1 receptor Alk6 (BMPR1B) in a recombinant chimeric Fc-receptor; also called chimeric FC-receptor; source: bought: R&D (Cat# 505-PR-100)
T3 sequence (looked up): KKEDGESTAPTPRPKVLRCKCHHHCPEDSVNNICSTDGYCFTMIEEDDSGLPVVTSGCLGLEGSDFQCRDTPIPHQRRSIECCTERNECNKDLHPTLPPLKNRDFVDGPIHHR
Put plainly: SPR; BIAcore T-200; chimeric Fc-type 1 receptor coupled to a Series S Protein A chip; ligands 6.25-0.049 nM flowed at 50 uL/min, 300 s association, 1000 s dissociation; 20 mM HEPES pH 7.4, 350 mM NaCl, 0.005 % P-20, 0.5 mg/mL BSA, 3.4 mM EDTA; kinetic 1:1 fit (also a bivalent fit); apparent KD = kd/ka; average of N=2. The note with it: both partners purified.

Data set [4] has as its target T2, BMP4/GDF5 heterodimer. Described as above. The note with it: both partners purified.

B1: BMP4 homodimer (ligand, human)
chain: MSPKHHSQRARKKNKNCRRHSLYVDFSDVGWNDWIVAPPGYQAFYCHGDCPFPLADHLNSTNHAIVQTLVNSVNSSIPKACCVPTELSAISMLYLDEYDKVVLKNYQEMVVEGCGCR
notes: additional Met residue on the N-terminus of the BMP4 construct; bone morphogenetic protein 4 (BMP4), mature domain; Dimer stabilised by an inter-chain disulfide bond; also called homodimeric BMP4
B1: the binding result in the data set with FC-(BMPR2)2 and with FC-(ActRIIb)2 was “binds” each time. Also, the Kd in the data set with FC-(Alk3)2 amounted to 0.072 nM.

B2: mature BMP4 (single chain) (natural protein, human)
chain: MSPKHHSQRARKKNKNCRRHSLYVDFSDVGWNDWIVAPPGYQAFYCHGDCPFPLADHLNSTNHAIVQTLVNSVNSSIPKACCVPTELSAISMLYLDEYDKVVLKNYQEMVVEGCGCR
notes: additional Met residue on the N-terminus of the BMP4 construct; bone morphogenetic protein 4 (BMP4), mature domain; The single chain before dimerisation; used for the rows on dimer formation; also called BMP4 monomer; monomeric BMP4; source: E. coli Rosetta (DE3), inclusion bodies, solubilised in urea, clarified (minimum 90 % purity)
B2: the binding result in [1] and in data set [2] was “binds” in each case.

For the molecule B3, the binding result with BMP2/GDF5 heterodimer, with BMP4/GDF5 heterodimer [3] and in the data set with GDF5 homodimer was “binds” in each case.

B4: BMP2_L333P/GDF5 heterodimer (complex, human)
chain 1: QAKHKQRKRLKSSCKRHPLYVDFSDVGWNDWIVAPPGYHAFYCHGECPFPPADHLNSTNHAIVQTLVNSVNSKIPKACCVPTELSAISMLYLDENEKVVLKNYQDMVVEGCGCR
chain 2: APLATRQGKRPSKNLKARCSRKALHVNFKDMGWDDWIIAPLEYEAFHCEGLCEFPLRSHLEPTNHAVIQTLMNSMDPESTPPTCCVPTRLSPISILFIDSANNVVYKQYEDMVVESCGCR
notes: bone morphogenetic protein 2 (BMP2), mature domain, with L333P; Growth and Differentiation Factor 5 (GDF5), mature domain, wild type; Predicted by the authors to have one disrupted type 1 site (GFBW) and one functional site (BFGW); also called mutant heterodimer; copies: 1 + 1
As to B4, the “fold decrease in KD (so in the source) against WT GDF5 homodimer” value with FC-(Alk6)2 was around 5 fold.

For the molecule B5, the binding result with BMP2/GDF5 heterodimer and with BMP4/GDF5 heterodimer [3] was “binds” in each case.

Take B6: the Kd with FC-(Alk3)2 came to 0.328 nM.

As for B7, the binding result in [1] is on record as “binds”.

Turning to B8, the Kd in the data set with BMP4/GDF5 heterodimer [4] is 0.029 nM.

B9: mature BMP2 (single chain) (natural protein, human, UniProt P12643 283-396, looked up)
chain: QAKHKQRKRLKSSCKRHPLYVDFSDVGWNDWIVAPPGYHAFYCHGECPFPLADHLNSTNHAIVQTLVNSVNSKIPKACCVPTELSAISMLYLDENEKVVLKNYQDMVVEGCGCR
notes: bone morphogenetic protein 2 (BMP2), mature domain; The single chain before dimerisation; used for the rows on dimer formation; also called BMP2 monomer; BMP2 chain; source: E. coli Rosetta (DE3), inclusion bodies, solubilised in urea, clarified (minimum 90 % purity)
Take B9: the binding result in data set [1] and in [2] was “binds” in each case.

B10: mature BMP2 L333P (single chain) (natural protein, human, UniProt P12643 283-396, looked up)
chain: QAKHKQRKRLKSSCKRHPLYVDFSDVGWNDWIVAPPGYHAFYCHGECPFPPADHLNSTNHAIVQTLVNSVNSKIPKACCVPTELSAISMLYLDENEKVVLKNYQDMVVEGCGCR
notes: bone morphogenetic protein 2 (BMP2), mature domain, with L333P; The single chain before dimerisation; used for the rows on dimer formation; also called L333P BMP2; source: E. coli Rosetta (DE3), inclusion bodies, solubilised in urea
As to B10, the binding result in [1] and in [2] was “binds” in each case.
